Measurements: publication PMC9482650, “Quantitative fragmentomics allow affinity mapping of interactomes” (Nature Communications, 2022)

T1: GRIP1_3, Q9Y3R0
T1 sequence (Q9Y3R0 247-346, limits assumed, looked up): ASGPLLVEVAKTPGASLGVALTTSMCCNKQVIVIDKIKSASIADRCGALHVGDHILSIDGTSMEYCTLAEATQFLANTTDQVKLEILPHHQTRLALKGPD

T2: GRIP1_4, Q9Y3R0
T2 sequence (Q9Y3R0 467-571, limits assumed, looked up): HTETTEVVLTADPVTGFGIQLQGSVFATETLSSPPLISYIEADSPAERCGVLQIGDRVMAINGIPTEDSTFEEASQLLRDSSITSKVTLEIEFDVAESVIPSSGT

T3: HTRA4, P83105
T3 sequence (P83105 378-476, limits assumed, looked up): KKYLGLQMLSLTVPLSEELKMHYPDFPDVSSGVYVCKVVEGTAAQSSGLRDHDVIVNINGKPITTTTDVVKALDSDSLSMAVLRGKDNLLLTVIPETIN

T4: APBA1_1, Q02410
T4 sequence (Q02410 651-752, limits assumed, looked up): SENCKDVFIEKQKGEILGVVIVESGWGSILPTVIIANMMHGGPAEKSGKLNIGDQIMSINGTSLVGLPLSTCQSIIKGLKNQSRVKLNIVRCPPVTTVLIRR

T5: GRIP1_2, Q9Y3R0
T5 sequence (Q9Y3R0 145-248, limits assumed, looked up): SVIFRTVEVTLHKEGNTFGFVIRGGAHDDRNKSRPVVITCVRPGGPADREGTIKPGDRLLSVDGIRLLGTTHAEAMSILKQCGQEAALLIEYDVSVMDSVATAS

T6: TIAM2, Q8IVF5
T6 sequence (Q8IVF5 885-986, limits assumed, looked up): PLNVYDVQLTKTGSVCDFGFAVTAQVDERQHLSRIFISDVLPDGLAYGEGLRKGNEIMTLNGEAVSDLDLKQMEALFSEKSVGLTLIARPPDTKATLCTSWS

T7: LIN7A, O14910
T7 sequence (O14910 103-200, limits assumed, looked up): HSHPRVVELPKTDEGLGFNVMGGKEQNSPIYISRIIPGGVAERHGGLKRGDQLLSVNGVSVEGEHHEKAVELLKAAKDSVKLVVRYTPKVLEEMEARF

T8: PARD3B_1, Q8TEW8
T8 sequence (Q8TEW8 196-299, limits assumed, looked up): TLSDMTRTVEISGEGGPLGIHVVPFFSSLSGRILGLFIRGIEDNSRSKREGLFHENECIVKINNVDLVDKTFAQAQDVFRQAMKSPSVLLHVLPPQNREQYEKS

T9: PCLO, Q9Y6V0
T9 sequence (Q9Y6V0 4491-4600, limits assumed, looked up): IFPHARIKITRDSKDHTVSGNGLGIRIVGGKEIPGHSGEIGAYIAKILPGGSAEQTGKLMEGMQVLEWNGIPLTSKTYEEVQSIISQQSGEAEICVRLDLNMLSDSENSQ

T10: LRRC7, Q96NW7
T10 sequence (Q96NW7 1440-1537, limits assumed, looked up): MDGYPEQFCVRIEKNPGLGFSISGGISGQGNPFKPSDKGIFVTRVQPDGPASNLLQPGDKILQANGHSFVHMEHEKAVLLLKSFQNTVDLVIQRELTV

T11: APBA1_2, Q02410
T11 sequence (Q02410 742-832, limits assumed, looked up): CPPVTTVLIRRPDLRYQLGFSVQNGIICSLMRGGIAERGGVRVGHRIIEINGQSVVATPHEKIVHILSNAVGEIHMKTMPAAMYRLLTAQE


Key:
Experiment in all cases: holdup assay
Parameters in all cases: key: below the threshold = too weak to quantify, mostly under pKd 3.1 to 4
Settings in all cases: plain residues with an end cap or a label only (N-terminal biotin on a linker: ado-ado)
[1] = target: T1, GRIP1_3, Q9Y3R0
[2] = target: NHERF2_2, Q15599
[3] = target: DLG5_1, Q8TDM6
[4] = target: T2, GRIP1_4, Q9Y3R0
[5] = target: T3, HTRA4, P83105
[6] = target: MAGI2_2, Q86UL8
[7] = target: Inadl_8, Q8NI35
[8] = target: T4, APBA1_1, Q02410
[9] = target: T5, GRIP1_2, Q9Y3R0
[10] = target: PARD3_3, Q8TEW0
[11] = target: GOPC, Q9HD26
[12] = target: ARHGEF12, Q9NZN5-2
[13] = target: GRIP2_3, Q9C0E4
[14] = target: T6, TIAM2, Q8IVF5
[15] = target: NOS1, P29475
[16] = target: PICK1, Q9NRD5
[17] = target: PDZRN4_1, Q6ZMN7
[18] = target: DLG2_2, Q15700
[19] = target: Inadl_9, Q8NI35
[20] = target: T7, LIN7A, O14910
[21] = target: T8, PARD3B_1, Q8TEW8
[22] = target: T9, PCLO, Q9Y6V0
[23] = target: T10, LRRC7, Q96NW7
[24] = target: T11, APBA1_2, Q02410
[25] = target: Inadl_2, Q8NI35
[26] = target: FRMPD2_2, Q68DX3
Sequence of FRMPD2_2, Q68DX3 (Q68DX3 944-1038): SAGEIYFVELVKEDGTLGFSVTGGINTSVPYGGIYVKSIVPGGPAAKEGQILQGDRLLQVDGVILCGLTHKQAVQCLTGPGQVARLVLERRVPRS

Sequence of DLG2_2, Q15700 (Q15700 189-283): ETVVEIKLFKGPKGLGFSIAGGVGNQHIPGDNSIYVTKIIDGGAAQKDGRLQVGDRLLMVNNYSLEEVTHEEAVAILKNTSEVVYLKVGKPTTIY
Sequence of PDZRN4_1, Q6ZMN7 (Q6ZMN7 213-318): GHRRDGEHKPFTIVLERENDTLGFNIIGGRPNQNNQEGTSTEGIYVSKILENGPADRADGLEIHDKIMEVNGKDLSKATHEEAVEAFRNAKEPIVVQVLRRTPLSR
Sequence of Inadl_8, Q8NI35 (Q8NI35 1425-1530): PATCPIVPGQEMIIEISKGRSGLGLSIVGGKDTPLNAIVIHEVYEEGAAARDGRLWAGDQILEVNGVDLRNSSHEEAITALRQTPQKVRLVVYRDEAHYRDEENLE
Sequence of GRIP2_3, Q9C0E4 (Q9C0E4 238-339): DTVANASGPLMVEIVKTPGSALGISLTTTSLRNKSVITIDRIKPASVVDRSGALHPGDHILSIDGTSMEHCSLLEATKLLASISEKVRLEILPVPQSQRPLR
Sequence of PARD3_3, Q8TEW0 (Q8TEW0 582-685): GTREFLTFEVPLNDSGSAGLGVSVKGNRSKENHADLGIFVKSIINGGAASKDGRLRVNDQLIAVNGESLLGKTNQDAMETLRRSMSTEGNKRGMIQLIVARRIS
Sequence of NHERF2_2, Q15599 (Q15599 142-238): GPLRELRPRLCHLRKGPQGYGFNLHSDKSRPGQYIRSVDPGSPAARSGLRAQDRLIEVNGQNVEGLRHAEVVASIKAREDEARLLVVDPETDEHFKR
Sequence of ARHGEF12, Q9NZN5-2 (Q9NZN5 other isoform, or with tags, fused parts or gaps): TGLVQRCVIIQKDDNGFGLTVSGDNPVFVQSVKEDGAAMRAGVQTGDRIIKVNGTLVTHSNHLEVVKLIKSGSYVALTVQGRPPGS
Sequence of MAGI2_2, Q86UL8 (Q86UL8 410-522): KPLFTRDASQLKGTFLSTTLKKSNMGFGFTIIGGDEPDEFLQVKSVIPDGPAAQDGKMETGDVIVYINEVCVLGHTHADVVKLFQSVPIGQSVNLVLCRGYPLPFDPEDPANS
Sequence of Inadl_2, Q8NI35 (Q8NI35 238-335): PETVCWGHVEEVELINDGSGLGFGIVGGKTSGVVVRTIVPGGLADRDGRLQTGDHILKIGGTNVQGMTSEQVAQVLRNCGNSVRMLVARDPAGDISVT
Sequence of PICK1, Q9NRD5 (Q9NRD5 17-115): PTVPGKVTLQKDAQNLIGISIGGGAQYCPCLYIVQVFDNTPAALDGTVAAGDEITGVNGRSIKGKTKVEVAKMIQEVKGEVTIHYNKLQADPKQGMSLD
Sequence of NOS1, P29475 (P29475 9-101): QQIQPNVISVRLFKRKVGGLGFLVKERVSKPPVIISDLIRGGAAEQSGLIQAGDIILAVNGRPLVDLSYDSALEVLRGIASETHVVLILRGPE
Sequence of DLG5_1, Q8TDM6 (Q8TDM6 617-713): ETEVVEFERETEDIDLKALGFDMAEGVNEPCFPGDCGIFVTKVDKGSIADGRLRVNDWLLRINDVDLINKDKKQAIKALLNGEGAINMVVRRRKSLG
Sequence of Inadl_9, Q8NI35 (Q8NI35 1530-1615): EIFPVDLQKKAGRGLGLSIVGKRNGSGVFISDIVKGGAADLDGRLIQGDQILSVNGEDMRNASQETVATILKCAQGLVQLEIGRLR

Binder	pKd [1]	pKd [2]	pKd [3]	pKd [4]	pKd [5]	pKd [6]	pKd [7]	pKd [8]	pKd [9]	pKd [10]	pKd [11]	pKd [12]	pKd [13]	pKd [14]	pKd [15]	pKd [16]	pKd [17]	pKd [18]	pKd [19]	pKd [20]	other results
LAHVKHKEQI [AQP3, Q92482]	below the threshold	below the threshold	below the threshold	below the threshold	3.79	below the threshold	below the threshold	below the threshold	below the threshold	below the threshold	below the threshold	below the threshold	below the threshold	below the threshold	below the threshold	3.98	below the threshold	below the threshold	below the threshold	below the threshold	pKd [21]: below the threshold; pKd [22]: below the threshold; pKd [23]: below the threshold; pKd [24]: below the threshold; pKd [25]: below the threshold; pKd [26]: below the threshold
APIAGFSSFV [SDK2, Q58EX2]	below the threshold	3.98	below the threshold	below the threshold	below the threshold	3.5	4.34	below the threshold	below the threshold	3.56	4.13	4.14	below the threshold	below the threshold	3.53	below the threshold	3.79	3.86	3.96	below the threshold	pKd [21]: 3.75; pKd [22]: below the threshold; pKd [23]: 3.65; pKd [24]: 4.15; pKd [25]: below the threshold; pKd [26]: 4.36
RFQQRMQTHV [KIRREL1, Q96J84]	below the threshold	3.57	below the threshold	below the threshold	4.14	5.49	3.72	below the threshold	below the threshold	below the threshold	3.91	4.44	below the threshold	3.97	below the threshold	below the threshold	below the threshold	4.44	below the threshold	below the threshold	pKd [21]: below the threshold; pKd [22]: below the threshold; pKd [23]: below the threshold; pKd [24]: 3.92; pKd [25]: below the threshold; pKd [26]: below the threshold
REEPDHSTEV [CCRL2, O00421]	below the threshold	3.65	3.63	below the threshold	below the threshold	below the threshold	below the threshold	below the threshold	3.5	3.61	3.56	4.37	below the threshold	below the threshold	below the threshold	below the threshold	4.17	4.5	4	below the threshold	pKd [21]: below the threshold; pKd [22]: below the threshold; pKd [23]: below the threshold; pKd [24]: 3.9; pKd [25]: below the threshold; pKd [26]: 4.16
QSYPSKHDYV [CLDN18, P56856]	below the threshold	below the threshold	below the threshold	below the threshold	4.12	below the threshold	4.22	below the threshold	3.58	3.69	below the threshold	below the threshold	below the threshold	below the threshold	4.29	4.26	below the threshold	below the threshold	4.12	below the threshold	pKd [21]: below the threshold; pKd [22]: below the threshold; pKd [23]: below the threshold; pKd [24]: 4.45; pKd [25]: below the threshold; pKd [26]: below the threshold
EPQYQPGENL [SRC, P12931]	below the threshold	3.77	below the threshold	below the threshold	3.9	below the threshold	below the threshold	below the threshold	below the threshold	3.6	below the threshold	below the threshold	below the threshold	below the threshold	below the threshold	below the threshold	3.52	below the threshold	below the threshold	below the threshold	pKd [21]: 3.91; pKd [22]: below the threshold; pKd [23]: below the threshold; pKd [24]: 3.59; pKd [25]: below the threshold; pKd [26]: below the threshold
